For assay [1], the target named is T1, SARS-CoV-2 nucleocapsid (N) protein, full-length, N-terminally 6xHis-tagged (SARS-CoV-2, UniProt P0DTC9 1-419).
T1 construct: SARS-CoV-2 nucleocapsid (N) protein, full-length, residues 1 to 419 (419 amino acids); also called 6XHis-N protein; FL N protein; not shown: His6, N-terminal, kept
Nature of the assay: pull-down. Conditions: both partners purified.

In assay [2] the target is T1, SARS-CoV-2 nucleocapsid (N) protein, …. Put plainly: MST; RED-NHS-labelled hnRNPA1 (5 nM) titrated with N protein, NTD, CTD or LKR+CTD; 16 two-fold dilutions from 100 μM; Monolith NT.115; single-site binding model; triplicates. Conditions: both partners purified.

By Kd is commonly meant the free concentration of one partner at which half of the binding sites on the other are occupied at equilibrium, for simple one-to-one binding. A lower Kd goes with tighter binding.

B1: N-terminally GST-tagged human hnRNPA1 (natural protein, UniProt P09651-2 1-320, looked up)
chain: MSKSESPKEPEQLRKLFIGGLSFETTDESLRSHFEQWGTLTDCVVMRDPNTKRSRGFGFVTYATVEEVDAAMNARPHKVDGRVVEPKRAVSREDSQRPGAHLTVKKIFVGGIKEDTEEHHLRDYFEQYGKIEVIEIMTDRGSGKKRGFAFVTFDDHDSVDKIVIQKYHTVNGHNCEVRKALSKQEMASASSSQRGRSGSGNFGGGRGGGFGGNDNFGRGGNFSGRGGFGGSRGGGGYGGSGDGYNGFGNDGSNFGGGGSYNDFGNYNNQSSNFGPMKGGNFGGRSSGPYGGGGQYFAKPRNQGGYGGSSSSSSYGSGRRF
notes: human hnRNPA1; Prey of the Ni-NTA pull-down; The general purification method names only Ni-NTA and SEC; also called GST-hnRNPA1; source: E. coli, purified; not shown: GST, N-terminal, kept
As to B1, the binding result in assay [1] is “binds”.

B2: human hnRNPA1, full-length (residues 1 to 320), fluorescently labelled (natural protein, UniProt P09651-2 1-320, looked up)
chain: MSKSESPKEPEQLRKLFIGGLSFETTDESLRSHFEQWGTLTDCVVMRDPNTKRSRGFGFVTYATVEEVDAAMNARPHKVDGRVVEPKRAVSREDSQRPGAHLTVKKIFVGGIKEDTEEHHLRDYFEQYGKIEVIEIMTDRGSGKKRGFAFVTFDDHDSVDKIVIQKYHTVNGHNCEVRKALSKQEMASASSSQRGRSGSGNFGGGRGGGFGGNDNFGRGGNFSGRGGFGGSRGGGGYGGSGDGYNGFGNDGSNFGGGGSYNDFGNYNNQSSNFGPMKGGNFGGRSSGPYGGGGQYFAKPRNQGGYGGSSSSSSYGSGRRF
modifications: RED-NHS 2nd generation dye
notes: human hnRNPA1, full-length, residues 1 to 320 (320-residue form); Labelled protein of the MST titrations (5 nM); also called full length hnRNPA1; source: E. coli Rosetta (DE3), purified (Ni-NTA, SEC)
In the case of B2, the Kd in assay [2] was approximately 180 nM.

For the origin of these results see article doi:10.1101/2025.11.28.691101, “Interaction and co-phase separation of SARS-CoV-2 nucleocapsid protein and human hnRNPA1 and its implications for viral life cycle” (bioRxiv, 2025).
